Test results as given in US20260200999A1, “SYNTHETIC TRANSCRIPTION FACTORS” (ETH ZURICH, priority 2022, published 2026).

B1: MTERF1135-399: MTERF1 lacking N-term and first and second Mterf motif, fused to RelA430-551 (protein, listed as Homo sapiens)
chain: TPENLSKRWDLWRKIVTSDLEIVNILERSPESFFRSNNNLNLENNIKFLYSVGLTRKCLCRLLTNAPRTFSNSLDLNKQMVEFLQAAGLSLGHNDPADFVRKIIFKNPFILIQSTKRVKANIEFLRSTFNLNSEELLVLICGPGAEILDLSNDYARRSYANIKEKLFSLGCTEEEVQKFVLSYPDVIFLAEKKFNDKIDCLMEENISISQIIENPRVLDSSISTLKSRIKELVNAGCNLSTLNITLLSWSKKRYEAKLKKLSRFA
B2: MTERF173-399: MTERF1 lacking N-term, fused to RelA430-551 (protein, listed as Homo sapiens)
chain: EDLLKNLLTMGVDIDMARKRQPGVFHRMITNEQDLKMFLLSKGASKEVIASIISRYPRAITRTPENLSKRWDLWRKIVTSDLEIVNILERSPESFFRSNNNLNLENNIKFLYSVGLTRKCLCRLLTNAPRTFSNSLDLNKQMVEFLQAAGLSLGHNDPADFVRKIIFKNPFILIQSTKRVKANIEFLRSTFNLNSEELLVLICGPGAEILDLSNDYARRSYANIKEKLFSLGCTEEEVQKFVLSYPDVIFLAEKKFNDKIDCLMEENISISQIIENPRVLDSSISTLKSRIKELVNAGCNLSTLNITLLSWSKKRYEAKLKKLSRFA
B3: SEQ ID NO: 35: MTERF158-399 fused to two copies of RelA521-551 (protein)
chain: PGLPNGLLSGDEDFSSIADMDFSALLSQISSPGLPNGLLSGDEDFSSIADMDFSALLSQISS
B4: SEQ ID NO: 33: MTERF158-399 fused to two copies of FOXO3604-644 (protein)
chain: HEKFPSDLDLDMFNGSLECDMESIIRSELMDADGLDFNFDSHEKFPSDLDLDMFNGSLECDMESIIRSELMDADGLDFNFDS
B5: RelA361-551: MTERF158-399 fused to RelA361-551 transactivation domain (PIT2 version) (protein, listed as Homo sapiens)
chain: DEFPTMVFPSGQISQASALAPAPPQVLPQAPAPAPAPAMVSALAQAPAPVPVLAPGPPQAVAPPAPKPTQAGEGTLSEALLQLQFDDEDLGALLGNSTDPAVFTDLASVDNSEFQQLLNQGIPVAPHTTEPMLMEYPEAITRLVTGAQRPPDPAPAPLGAPGLPNGLLSGDEDFSSIADMDFSALLSQISS
B6: LMSTEN: MTERF158-399 fused to the LMSTEN domain of MYB (protein, listed as Homo sapiens)
chain: EAQNVSSHVPYPVALHVNIVNVPQPAAAAIQRHYNDEDPEKEKRIKELELLLMSTENELKGQQVLPTQNHTCSYPGWHST
B7: MTERF1104-399: MTERF1 lacking N-term and first Mterf motif, fused to RelA430-551 (protein, listed as Homo sapiens)
chain: EQDLKMFLLSKGASKEVIASIISRYPRAITRTPENLSKRWDLWRKIVTSDLEIVNILERSPESFFRSNNNLNLENNIKFLYSVGLTRKCLCRLLTNAPRTFSNSLDLNKQMVEFLQAAGLSLGHNDPADFVRKIIFKNPFILIQSTKRVKANIEFLRSTFNLNSEELLVLICGPGAEILDLSNDYARRSYANIKEKLFSLGCTEEEVQKFVLSYPDVIFLAEKKFNDKIDCLMEENISISQIIENPRVLDSSISTLKSRIKELVNAGCNLSTLNITLLSWSKKRYEAKLKKLSRFA

Tested on: Response Element-driven mCerulean reporter (MTERF1 binding sites, SEQ ID NO: 42)
Assay: mCerulean reporter co-transfection with HumTAP constructs in HEK293 cells (flow cytometry)
Assay type: cell-based, human
Settings: HEK293; for reporter gene (mCerulean) expression / mCerulean expression, fold lower than the benchmark RelA430-551 TAD / reporter (mCerulean) expression: TAD fused to MTERF158-399; for reporter gene (mCerulean) expression: 5xRE reporter without spacer (SEQ ID NO: 48), compared with RelA430-551 (Example 1, FIG. 4A); for mCerulean expression, fold lower than the benchmark RelA430-551 TAD: FIG. 9B; for reporter (mCerulean) expression: pEF1a-driven, Example 4, FIG. 9B, C; for output expression / transcriptional activation: N-terminally truncated MTERF1 fused to RelA430-551, reporter SEQ ID NO: 48 (Example 1, FIG. 5B); for reporter expression, times less than with MTERF158-399: truncated MTERF1 DBD; for fluorescence relative to only one copy of the respective TAD: Example 1, FIG. 4A
Description: To construct a promoter with Response Elements/MTERF1 binding sites driving the gene of interest, the inventors placed MTERF1 binding sites (SEQ ID NO: 42) upstream a minimal TATA box (SEQ ID NO: 103). An mCerulean fluorescent reporter representing the gene of interest (Gol) was placed downstream of the TATA box. Each of these is referred to as a reporter construct. Five different reporter constructs were made comprising respectively 3, 5, 7, 9, and 11 MTERF1 binding sites 6 base pairs apart upstream of the TATA box (FIG. 1A; SEQ ID NO: 41, 44, 45, 46 and 47, respectively). They were co-transfected with the MTF construct into Hela cells. […] Using flow cytometry, relative mCerulean levels were measured and calculated by normalization to the transfection control in Hela cells (FIG. 1C). […] Next, reporter plasmids with varying spacer lengths (0, 6 bp and 10 bp; SEQ ID NO: 48, 44 and 49, respectively) (FIG. 1F) between a fixed number of REs (i.e. 5 REs/MTERF1 binding sites) were transfected with the MTF construct. […] This was confirmed using flow cytometry (FIG. 1H). […]
With the goal to engineer stronger and possibly shorter HumTAPs, the inventors fused the MTERF158-399 peptide (SEQ ID NO: 1) to a variety of transactivation domains and transfected HEK293 cells with those constructs and the reporter construct comprising 5×RE/MTERF1 binding sites without a spacer between them (SEQ ID NO: 48).
First, MTERF158-399 (SEQ ID NO: 1) was fused with different subsequences of RelA. RelA361-551 (SEQ ID NO: 27) corresponds to the sequence used in the construction of the bacterial-derived synthetic TF PIT2 [19], while RelA342-551 (SEQ ID NO: 29) contains all annotated transactivation domains according to domain annotation under Uniprot Q04206 (https://www.uniprot.org/uniprotkb/Q04206/entry). […] We also fused MTERF158-399 (SEQ ID NO: 1) to a set of transactivation domains previously found to be strong activators with a small genetic footprint (FIG. 4B).
To further decrease the DNA footprint of a HumTAP, the inventors investigated to what degree the DNA binding domain may be reduced. To this end, the inventors created 3 versions of MTERF1 subsequences fused to RelA430-551 (SEQ ID NO: 3). MTERF173-399 (SEQ ID NO: 7), MTERF1104-399 (SEQ ID NO: 9), and MTERF1135-399 (SEQ ID NO: 11) are subunits of MTERF1 without its mitochondrial transfer peptide (MTERF11-57; SEQ ID NO: 37) that either lack only the first […] N-terminal amino acids (MTERF58-72; SEQ ID NO: 39) or additionally, also lack the first (MTERF173-98; SEQ ID NO: 104) or both the first and second (MTERF1104-134; SEQ ID NO: 106) mterf motifs (FIG. 5A). The removal of N-terminal domains reduces the genetic footprint of a HumTAP (FIG. 5B). These constructs were co-transfected into HEK293 cells with the reporter construct containing 5×RE without a spacer in its promoter (SEQ ID NO: 48).
In addition to RelA430-551 (termed “v1”), the inventors tested three alternative subsequences: v2) RelA342-551 (SEQ ID NO: 29), which contains all transactivation domains as annotated on UniProt Q04206; v3) RelA361-551 (SEQ ID NO: 27), which is identical to the peptide used in the construction of PIT2 [2]; and v4) RelA521-551 (SEQ ID NO: 31), which constitutes only the transactivation domain 1 (TA1). The protein domains WW (SEQ ID NO: 21), KRAB of ZNF473 (SEQ ID NO: 23), Nuc-rec-co-Act (SEQ ID NO: 25), LMSTEN (SEQ ID NO: 19), and FoxoTAD (SEQ ID NO: 17) were recently identified as strong transactivators. To assess their functionality in the HumTAP context, the inventors created fusion proteins between each of them and MTERF158-399 (SEQ ID NO: 1) (FIG. 9A).
Upon co-transfection of HEK293 cells with plasmids encoding pEF1a-driven expression of the fusion HumTAPs, a Response Element-driven mCerulean reporter protein, and a mCherry transfection control, all peptides derived from RelA except TA1 mediated high levels of reporter gene expression. […]

[1] = two copies of TAD fused to MTERF158-399

| Molecule | reporter gene (mCerulean) expression | reporter (mCerulean) expression | also measured |
| --- | --- | --- | --- |
| FoxoTAD: MTERF158-399 fused to the FOXO-TAD domain of FOXO3 (HEKFPSDLDLDMFNGSLECDMESIIRSELMDADGLDFNFDS; listed as Homo sapiens) | mediated significant mCerulean expression | – | mCerulean expression, fold lower than the benchmark RelA430-551 TAD: 8.4 fold |
| NucRecCoAct: MTERF158-399 fused to the Nuc_rec_co-act domain of NCOA3 (EGQSDERALLDQLHTLLSNTDATGLEEIDRALGIPELVNQGQALEPKQ; listed as Homo sapiens) | did not lead to high reporter expression | little to no reporter expression | – |
| RelA342-551: MTERF158-399 fused to RelA342-551, containing all annotated transactivation domains | stronger reporter gene expression | – | – |
| TA1: MTERF158-399 fused to the TA1 domain of RelA (PGLPNGLLSGDEDFSSIADMDFSALLSQISS; listed as Homo sapiens) | did not activate reporter gene expression significantly | little to no reporter expression | – |
| VP64: MTERF158-399 fused to VP64, viral-derived transactivation domain repeats of HHV11 linked by a GS linker (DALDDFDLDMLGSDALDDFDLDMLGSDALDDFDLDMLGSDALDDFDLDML) | lower reporter expression than the benchmark | – | – |
| WW: MTERF158-399 fused to the WW domain of WWC1 | did not lead to high reporter expression | little to no reporter expression | – |
| ZNF473 KRAB: MTERF158-399 fused to the KRAB domain of ZNF473 (FVTLKDVGMDFTLGDWEQLGLEQGDTFWDTALDNCQDLFLLDPP; listed as Homo sapiens) | did not lead to high reporter expression | little to no reporter expression | – |
| B1 | – | – | functionality of synTF with truncated DBD (FIG. 9E): non-functional; output expression / transcriptional activation: complete loss of transcriptional activation |
| B2 | – | – | output expression / transcriptional activation: reduced but not abolished; reporter expression, times less than with MTERF158-399 (FIG. 9E): ~ 1.5 times |
| B3 | – | led to reporter expression | fluorescence relative to only one copy of the respective TAD [1]: 201 times |
| B4 | – | enhanced the transcriptional activity of the synthetic TF more than two copies of TA1 or two copies of LMSTEN | mCerulean expression, fold more than the benchmark RelA430-551 TAD (fused to MTERF158-399, FIG. 9C): ~ 2 fold; fluorescence relative to only one copy of the respective TAD [1]: 12 times; mCerulean/reporter expression, fold more than one copy of the TAD (two copies of TAD fused to MTERF158-399, Example 4, FIG. 9C): 20 fold |
| B5 | stronger reporter gene expression | – | – |
| B6 | mediated significant mCerulean expression | – | mCerulean expression, fold lower than the benchmark RelA430-551 TAD: 11.3 fold |
| B7 | – | – | output expression / transcriptional activation: reduced but not abolished; reporter expression, times less than with MTERF158-399 (FIG. 9E): ~ 1.5 times |
